Paper PMC3409459, “Absorption, distribution, metabolism and excretion of peginesatide, a novel erythropoiesis-stimulating agent, in rats” (Xenobiotica; the Fate of Foreign Compounds in Biological …, 2011)

Experiment: Tissue distribution of radioactivity by LSC following combustion, albino rats
Format: in vivo, male Sprague-Dawley (albino) rats
Details: for Concentration of the radioactivity, Pituitary / Concentration of the radioactivity, Plasma / Concentration of the radioactivity, Skeletal muscle / Concentration of the radioactivity, Skin / Concentration of the radioactivity, Spinal cord / Concentration of the radioactivity, Spleen / Concentration of the radioactivity, Stomach / Concentration of the radioactivity, Submandibular lymph nodes / Concentration of the radioactivity, Testes / Concentration of the radioactivity, Thymus / Concentration of the radioactivity, Thyroid gland / Concentration of the radioactivity, Urinary bladder / Concentration of the radioactivity, Adrenals / Concentration of the radioactivity, Blood / Concentration of the radioactivity, Bone (femur) / Concentration of the radioactivity, Bone marrow / Concentration of the radioactivity, Brain / Concentration of the radioactivity, Eyes / Concentration of the radioactivity, Fat / Concentration of the radioactivity, Harderian glands / Concentration of the radioactivity, Heart / Concentration of the radioactivity, Intestine / Concentration of the radioactivity, Kidneys / Concentration of the radioactivity, Liver / Concentration of the radioactivity, Lungs / Concentration of the radioactivity, Pancreas: mean ± SD, n=3; for tissue to plasma ratios: single IV 5 mg·kg^−1
Procedure: Total captured radioactivity was subsequently measured via LSC.
Male Sprague-Dawley (albino) rats (n = 21; three per time point) were administered a single IV dose of 5 mg·kg^−1 [^14C]-peginesatide (27.5 μCi/kg) and tissue concentrations of radioactivity determined at 0.25, 6, and 24 h, and 7,14,30 and 60 days following dosing. Similarly, male Long Evans (pigmented) rats (n = 21; three per time point) were administered a single IV dose of 5 mg-kg^−1 [^14C]-peginesatide and plasma, skin, and eye concentrations of radioactivity were measured at the various time points through 60 days after dosing. At each time point, blood was collected, the animals sacrificed, and tissues excised. Tissues collected from the Sprague-Dawley rats included blood, plasma, adrenals, bone marrow, brain, eyes, fat, femur, Harderian glands, heart, hypophysis, intestine, kidneys, lungs, liver, pancreas, skeletal muscle, skin, spinal cord, spleen, stomach, submaxillary glands, testes, thymus, thyroid gland, and urinary bladder. Plasma, eyes, non-pigmented skin, and pigmented skin were collected from Long Evans rats. All tissue samples were measured for radioactivity by LSC following combustion. The liver and intestine were first homogenized in distilled water (20% w/v) prior to analysis. The concentration of radioactivity in the blood, plasma, and tissues was calculated and expressed as ug equiv·g^-1 or mLbased on the LSC counts and the specific activity of the dosing solution.

[1] = 60 Days after single IV 5 mg·kg^−1, LSC
[2] = 0.25 h after single IV 5 mg·kg^−1, LSC
[3] = 6 h after single IV 5 mg·kg^−1, LSC
[4] = 24 h after single IV 5 mg·kg^−1, LSC

Peginesatide
Concentration of the radioactivity, Pituitary [1]: 4.32 ± 0.289 μg equiv·g^−1 or mL
Concentration of the radioactivity, Plasma [1]: 0.232 ± 0.042 μg equiv·g^−1 or mL
Concentration of the radioactivity, Skeletal muscle [1]: 0.085 ± 0.021 μg equiv·g^−1 or mL
Concentration of the radioactivity, Skin [1]: 0.394 ± 0.080 μg equiv·g^−1 or mL
Concentration of the radioactivity, Spinal cord [1]: 0.036 ± 0.018 μg equiv·g^−1 or mL
Concentration of the radioactivity, Spleen [1]: 3.40 ± 0.480 μg equiv·g^−1 or mL
Concentration of the radioactivity, Stomach [1]: 0.590 ± 0.242 μg equiv·g^−1 or mL
Concentration of the radioactivity, Submandibular lymph nodes [1]: 8.74 ± 1.22 μg equiv·g^−1 or mL
Concentration of the radioactivity, Testes [1]: 5.10 ± 2.17 μg equiv·g^−1 or mL
Concentration of the radioactivity, Thymus [1]: 1.15 ± 0.155 μg equiv·g^−1 or mL
Concentration of the radioactivity, Thyroid gland [1]: 8.03 ± 1.45 μg equiv·g^−1 or mL
Concentration of the radioactivity, Urinary bladder [1]: 0.967 ± 0.188 μg equiv·g^−1 or mL
Concentration of the radioactivity, Adrenals [2]: 8.45 ± 0.517 μg equiv·g^−1 or mL
Concentration of the radioactivity, Blood [2]: 80.9 ± 1.90 μg equiv·g^−1 or mL
Concentration of the radioactivity, Bone (femur) [2]: 1.95 ± 0.128 μg equiv·g^−1 or mL
Concentration of the radioactivity, Bone marrow [2]: 9.66 ± 0.367 μg equiv·g^−1 or mL
Concentration of the radioactivity, Brain [2]: 1.18 ± 0.030 μg equiv·g^−1 or mL
Concentration of the radioactivity, Eyes [2]: 0.346 ± 0.029 μg equiv·g^−1 or mL
Concentration of the radioactivity, Fat [2]: 0.861 ± 0.096 μg equiv·g^−1 or mL
Concentration of the radioactivity, Harderian glands [2]: 1.15 ± 0.357 μg equiv·g^−1 or mL
Concentration of the radioactivity, Heart [2]: 6.33 ± 0.512 μg equiv·g^−1 or mL
Concentration of the radioactivity, Intestine [2]: 1.47 ± 0.158 μg equiv·g^−1 or mL
Concentration of the radioactivity, Kidneys [2]: 11.2 ± 1.48 μg equiv·g^−1 or mL
Concentration of the radioactivity, Liver [2]: 7.03 ± 0.613 μg equiv·g^−1 or mL
Concentration of the radioactivity, Lungs [2]: 8.46 ± 0.824 μg equiv·g^−1 or mL
Concentration of the radioactivity, Pancreas [2]: 2.56 ± 0.036 μg equiv·g^−1 or mL
Concentration of the radioactivity, Pituitary [2]: 13.2 ± 1.08 μg equiv·g^−1 or mL
Concentration of the radioactivity, Plasma [2]: 131 ± 3.86 μg equiv·g^−1 or mL
Concentration of the radioactivity, Skeletal muscle [2]: 0.569 ± 0.100 μg equiv·g^−1 or mL
Concentration of the radioactivity, Skin [2]: 0.376 ± 0.103 μg equiv·g^−1 or mL
Concentration of the radioactivity, Spinal cord [2]: 0.909 ± 0.289 μg equiv·g^−1 or mL
Concentration of the radioactivity, Spleen [2]: 4.62 ± 0.185 μg equiv·g^−1 or mL
Concentration of the radioactivity, Stomach [2]: 1.32 ± 0.257 μg equiv·g^−1 or mL
Concentration of the radioactivity, Submandibular lymph nodes [2]: 2.57 ± 0.038 μg equiv·g^−1 or mL
Concentration of the radioactivity, Testes [2]: 1.14 ± 0.083 μg equiv·g^−1 or mL
Concentration of the radioactivity, Thymus [2]: 0.669 ± 0.115 μg equiv·g^−1 or mL
Concentration of the radioactivity, Thyroid gland [2]: 8.25 ± 1.42 μg equiv·g^−1 or mL
Concentration of the radioactivity, Urinary bladder [2]: 2.40 ± 1.32 μg equiv·g^−1 or mL
Concentration of the radioactivity, Adrenals [3]: 7.83 ± 1.38 μg equiv·g^−1 or mL
Concentration of the radioactivity, Blood [3]: 60.9 ± 4.36 μg equiv·g^−1 or mL
Concentration of the radioactivity, Bone (femur) [3]: 1.53 ± 0.555 μg equiv·g^−1 or mL
Concentration of the radioactivity, Bone marrow [3]: 8.66 ± 2.79 μg equiv·g^−1 or mL
Concentration of the radioactivity, Brain [3]: 0.939 ± 0.015 μg equiv·g^−1 or mL
Concentration of the radioactivity, Eyes [3]: 0.779 ± 0.168 μg equiv·g^−1 or mL
Concentration of the radioactivity, Fat [3]: 0.923 ± 0.308 μg equiv·g^−1 or mL
Concentration of the radioactivity, Harderian glands [3]: 1.91 ± 0.183 μg equiv·g^−1 or mL
Concentration of the radioactivity, Heart [3]: 7.71 ± 1.29 μg equiv·g^−1 or mL
Concentration of the radioactivity, Intestine [3]: 3.07 ± 0.233 μg equiv·g^−1 or mL
Concentration of the radioactivity, Kidneys [3]: 10.6 ± 1.16 μg equiv·g^−1 or mL
Concentration of the radioactivity, Liver [3]: 7.51 ± 0.438 μg equiv·g^−1 or mL
Concentration of the radioactivity, Lungs [3]: 8.37 ± 1.27 μg equiv·g^−1 or mL
Concentration of the radioactivity, Pancreas [3]: 3.83 ± 0.582 μg equiv·g^−1 or mL
Concentration of the radioactivity, Pituitary [3]: 13.9 ± 2.71 μg equiv·g^−1 or mL
Concentration of the radioactivity, Plasma [3]: 99.6 ± 2.94 μg equiv·g^−1 or mL
Concentration of the radioactivity, Skeletal muscle [3]: 0.447 ± 0.037 μg equiv·g^−1 or mL
Concentration of the radioactivity, Skin [3]: 1.41 ± 0.175 μg equiv·g^−1 or mL
Concentration of the radioactivity, Spinal cord [3]: 0.662 ± 0.070 μg equiv·g^−1 or mL
Concentration of the radioactivity, Spleen [3]: 5.51 ± 0.776 μg equiv·g^−1 or mL
Concentration of the radioactivity, Stomach [3]: 2.69 ± 0.013 μg equiv·g^−1 or mL
Concentration of the radioactivity, Submandibular lymph nodes [3]: 4.25 ± 0.140 μg equiv·g^−1 or mL
Concentration of the radioactivity, Testes [3]: 4.01 ± 0.254 μg equiv·g^−1 or mL
Concentration of the radioactivity, Thymus [3]: 1.02 ± 0.040 μg equiv·g^−1 or mL
Concentration of the radioactivity, Thyroid gland [3]: 10.1 ± 1.79 μg equiv·g^−1 or mL
Concentration of the radioactivity, Urinary bladder [3]: 3.53 ± 0.234 μg equiv·g^−1 or mL
Concentration of the radioactivity, Adrenals [4]: 10.0 ± 1.15 μg equiv·g^−1 or mL
Concentration of the radioactivity, Blood [4]: 39.7 ± 2.51 μg equiv·g^−1 or mL
Concentration of the radioactivity, Bone (femur) [4]: 1.16 ± 0.177 μg equiv·g^−1 or mL
Concentration of the radioactivity, Bone marrow [4]: 8.50 ± 1.23 μg equiv·g^−1 or mL
Concentration of the radioactivity, Brain [4]: 0.646 ± 0.050 μg equiv·g^−1 or mL
Concentration of the radioactivity, Eyes [4]: 0.806 ± 0.063 μg equiv·g^−1 or mL
Concentration of the radioactivity, Fat [4]: 1.65 ± 0.392 μg equiv·g^−1 or mL
Concentration of the radioactivity, Harderian glands [4]: 2.55 ± 0.105 μg equiv·g^−1 or mL
Concentration of the radioactivity, Heart [4]: 6.28 ± 0.256 μg equiv·g^−1 or mL
Concentration of the radioactivity, Intestine [4]: 3.10 ± 0.144 μg equiv·g^−1 or mL
Concentration of the radioactivity, Kidneys [4]: 8.75 ± 1.47 μg equiv·g^−1 or mL
Concentration of the radioactivity, Liver [4]: 9.26 ± 0.516 μg equiv·g^−1 or mL
Concentration of the radioactivity, Lungs [4]: 7.22 ± 0.464 μg equiv·g^−1 or mL
Concentration of the radioactivity, Pancreas [4]: 5.14 ± 0.582 μg equiv·g^−1 or mL
Concentration of the radioactivity, Pituitary [4]: 13.7 ± 2.02 μg equiv·g^−1 or mL
Concentration of the radioactivity, Plasma [4]: 64.1 ± 5.12 μg equiv·g^−1 or mL
Concentration of the radioactivity, Skeletal muscle [4]: 0.584 ± 0.044 μg equiv·g^−1 or mL
Concentration of the radioactivity, Skin [4]: 3.29 ± 0.308 μg equiv·g^−1 or mL
Concentration of the radioactivity, Spinal cord [4]: 0.442 ± 0.090 μg equiv·g^−1 or mL
Concentration of the radioactivity, Spleen [4]: 10.2 ± 1.04 μg equiv·g^−1 or mL
Concentration of the radioactivity, Stomach [4]: 3.01 ± 0.168 μg equiv·g^−1 or mL
Concentration of the radioactivity, Submandibular lymph nodes [4]: 5.72 ± 0.303 μg equiv·g^−1 or mL
Concentration of the radioactivity, Testes [4]: 4.15 ± 0.605 μg equiv·g^−1 or mL
Concentration of the radioactivity, Thymus [4]: 1.90 ± 0.201 μg equiv·g^−1 or mL
Concentration of the radioactivity, Thyroid gland [4]: 10.2 ± 1.10 μg equiv·g^−1 or mL
Concentration of the radioactivity, Urinary bladder [4]: 6.18 ± 0.260 μg equiv·g^−1 or mL
tissue to plasma ratios (after 24 h, in most tissues): > 1
tissue to plasma ratios (through at least 24 h after dosing): < 1
